Source: paper PMC10953402, “Structure and Function of the α‐Hydroxylation Bimodule of the Mupirocin Polyketide Synthase” (Angewandte Chemie (International Ed. in English), 2023)

B1: MupA (enzyme, Pseudomonas fluorescens, UniProt Q9AH80 1-369, looked up)
chain: MSVEQLLGLGVTNAARAPRQPAFSLLFFSDVREDISASEKYEFARSLTLFGDAQGFEAVYFPERHFHEFGAIYPDSAVMAASLIPQTRHIRFRTAGISLPLHHPARVVESWSMNDVLSGGRVDLGFGSGWSRPDFLLAPHAYEDRREVMWQRIEQVRRLWAGERLSFPGPGGDPVSVVTFPRPLQTSLNVWILVAQNTESFIAAGKAGFNVFTMLYGIDLPDLAEKIGLYRQARRDAGFDPASGRVTLMLHTLVGPDSAWVRRAVEAPFKDYIRSSLVAHMKARATPDGRPLDATEQENVLQYAFERYYETGALFGTVDEVRYRVGQVLETGVDEIACLMDFGVDYAVVHQSLPYLEQLVASFQERSAQ
notes: MupA, predicted FMNH2-dependent monooxygenase of the mupirocin biosynthetic gene cluster of Pseudomonas fluorescens NCIMB 10586; Dimer by SEC, dimer of dimers above 2 mg/ml; Used unlabelled in the NMR titrations; they may stand in the Supporting Information; also called flavin-dependent monooxygenase MupA; FMO; source: cloned, over-expressed and purified to homogeneity
B2: Fre (enzyme, E. coli, UniProt P0AEN1 1-233, looked up)
chain: MTTLSCKVTSVEAITDTVYRVRIVPDAAFSFRAGQYLMVVMDERDKRPFSMASTPDEKGFIELHIGASEINLYAKAVMDRILKDHQIVVDIPHGEAWLRDDEERPMILIAGGTGFSYARSILLTALARNPNRDITIYWGGREEQHLYDLCELEALSLKHPGLQVVPVVEQPEAGWRGRTGTVLTAVLQDHGTLAEHDIYIAGRFEMAKIARDLFCSERNAREDRLFGDAFAFI
notes: NAD(P)H:flavin oxidoreductase Fre of E. coli (GenBank M61182); Purified as the expected dimer; also called oxidoreductase Fre; E. coli Fre; source: E. coli, overexpressed, purified

Assays:
[1] = target: the molecule itself; test: SEC; purified MupA alone, at higher concentrations (>2 mg/ml)
[2] = target: the molecule itself; test: SEC; purified MupA alone, at the lower concentrations (not above 2 mg/ml)
[3] = target: the molecule itself; test: not stated; purification of recombinant Fre (Figure S6); how the dimer was shown is not told

Protein	stoichiometry N [1]	stoichiometry N [2]	stoichiometry N [3]
B1	4	2	
B2			2
